We go through 1 molecule from patent US8916149B2, “Preventing and treating sepsis” (University of Rochester, priority 2008, dated 2014).

Experiment [1] deals with human neutrophils. Briefly: Micropipette assay (directional migration toward fMLP tip). It is filed as cell-based. As for the experimental part:
(§1) Delta T dishes were coated with human FN (50 μg/ml, BD Biosciences, San Jose, Calif.) for overnight at 4° C. and then for 4 h at room temperature. Plates were then rinsed with L-15 media. […] The cells were then added to FN-coated dishes in 1.5 ml of L-15 with 2 mg/ml of glucose. For neutrophil live cell staining, 2 μM Green Cell Tracker CMFDA (5-chloromethylfluorescein diacetate; Molecular Probes, Carlsbad, Calif.) was used. Temperature was maintained at 37° C. throughout the experiment using a FCS2 live-cell imaging chamber (Bioptechs, Butler, Pa.). Images were acquired for 30 to 60 minutes under a 10× objective lens using a Nikon TE-2000U inverted microscope. Phase contrast images were acquired every 5 seconds and fluorescence images every 30 seconds. Cell paths were traced using MetaVue™ imaging software (Molecular Devices Corporation, Downingtown, Pa.).
Directional migration was investigated using a micropipette assay to analyze the dynamics of neutrophil migration on different integrin ligands. Sterile Femtotips II micropipette tips (Eppendorf, Westbury, N.Y.) were loaded with 5 μl of 1 μM fMLP and then placed on the bottom of FN-coated delta T dishes that had been pre-warmed to 37° C. Image acquisition began within 2 minutes of tip placement.
(§2) The time-lapsed images of migrating neutrophils were taken under phase contrast microscopy. Each image was thresholded and binarized based on brightness to define the centroids of the neutrophils. The closest centroids between consecutive images were linked as a trajectory under the assumption that these centroids were made by the same neutrophil. The maximum distance between the closest centroids was also defined to preclude the artifacts due to cells moving into and out of the field of view.

For experiment [2], the system named is lipopolysaccharide (LPS)-induced pulmonary inflammation. The conditions noted are these: intravenous administration; cited from earlier work.
The subject of experiment [3] is human neutrophils. Nature of the experiment: Under-agarose migration assay (directional migration). The format is cell-based. The conditions noted are these: 10 μg/ml rhAPC. As for the experimental part: Delta T dishes (Bioptechs, Butler, Pa.) were coated with fibronectin (FN). Plates were then rinsed with the appropriate media and allowed to air-dry. Molten agarose (Seakem GTG, FMC Bioproducts, Rockland, Me.) was prepared as described (Harler et al., J Immunol., 162:6792 (1999)). Two milliliters of the resulting gel was added to each dish and allowed to solidify at 4° C. for 5 min. Three wells that were 2 mm apart were prepared in the agarose using a template and a beveled punch that was coated with polymixin B. Care was taken to ensure that the plate bottom was not scratched. Punch sections were removed with an aspirator, and the gel was then equilibrated for one hour at 37° C. The wells were then aspirated and loaded with […] of one of the following: PBS (left well), a suspension containing approximately 200,000 cells (middle well), or a solution containing 5 pmol of fMLP (right well). […] The dishes were incubated for 60 min at 37° C., and then fixed with 10% buffered formalin. Counts were then made of the number of cells that had migrated 1 mm towards the right well (towards fMLP, directional migration), 0.5 mm towards the left and right wells (“straddle”), and 1 mm towards the left well (random migration). The experiments were repeated three times per condition.

In experiment [4] the test system is human neutrophils. Nature of the experiment: Random migration of neutrophils on FN-coated cover glass (live-cell imaging). The format is cell-based. As for the experimental part: as §1
Random migration was investigated by adding fMLP or IL-8 to media at a final concentration of 10^−8M and analyzed by manually tracing the outline of each cell in selected frames (i.e., at 50 second intervals). The x and y coordinates of each cell were measured using ImageJ software and were corrected so that the starting position was x=0 and y=0.
as §2

B1: rhAPC: Recombinant human activated protein C obtained from Eli Lilly; FDA-approved drug for severe sepsis (protein)
chain 1: ANSFLEELRHSSLERECIEEICDFEEAKEIFQNVDDTLAFWSKHVDGDQCLVLPLEHPCASLCCGHGTCIDGIGSFSCDCRSGWEGRFCQREVSFLNCSLDNGGCTHYCLEEVGWRRCSCAPGYKLGDDLLQCHPAVKFPCGRPWKRMEKKRSHL
chain 2: LIDGKMTRRGDSPWQVVLLDSKKKLACGAVLIHPSWVLTAAHCMDESKKLLVRLGEYDLRRWEKWELDLDIKEVFVHPNYSKSTTDNDIALLHLAQPATLSQTIVPICLPDSGLAERELNQAGQETLVTGWGYHSSREKEAKRNRTFVLNFIKIPVVPHNECSEVMSNMVSENMLCAGILGDRQDACEGDSGGPMVASFHGTWFLVGLVSWGEGCGLLHNYGVYTKVSRYLDWIHGHIRDKEAPQKSWAP
Turning to B1, the direction of movement entry in experiment [1] is “without significantly altering”. Moreover, the “decrease of average lateral migration speed (S)” value in experiment [1] (over 30 neutrophils in each group) is “more than 2.5 fold”. Also, the “neutrophil migration on FN toward the fMLP tip” value in experiment [1] (rhAPC pre-treatment) was “dramatically decreased”. Moreover, the LPS-induced pulmonary inflammation entry in experiment [2] is given as “reduce”. For the same molecule, the “directional migration of neutrophils on FN towards fMLP” value in experiment [3] was “decreased”. The “random migration of neutrophils on FN induced by fMLP” value in experiment [4] (10 μg/ml protein, fMLP) is “dramatically reduced”. Also, the “neutrophil migration on FN by IL-8” value in experiment [4] (rhAPC pre-treatment, IL-8) is on record as “dramatically decreased”.
